# Assay results: patent US20240034774A1
# Experiments:
# Test in all cases: cell-based or functional assay
# [1] = molecular target: HIV-1 envelope glycoprotein gp120 of virus CHO77 (HIV-1 (subtype B))
# [2] = molecular target: HIV-1 envelope glycoprotein gp120 of virus BaL (HIV-1 (subtype B))
# [3] = molecular target: HIV-1 envelope glycoprotein gp120 of virus 92US657 (HIV-1 (subtype B))
# [4] = molecular target: HIV-1 envelope glycoprotein gp120 of virus 7141 (HIV-1)
# [5] = molecular target: HIV-1 envelope glycoprotein gp120 of virus 92US727 (HIV-1)
# [6] = molecular target: HIV-1 envelope glycoprotein gp120 of virus VS001 (HIV-1)
# [7] = molecular target: 152 patient-derived subtype B viruses obtained from pre-ART plasma
# [8] = molecular target: HIV-1 envelope glycoprotein (gp120) of virus 7141 (HIV-1)
# [9] = molecular target: HIV-1 envelope glycoprotein (gp120) of virus 7714 (HIV-1)
# [10] = molecular target: HIV-1 envelope glycoprotein (gp120) of virus VS043 (HIV-1)
# [11] = molecular target: HIV-1 envelope glycoprotein (gp120) of virus 7467 (HIV-1)
# [12] = molecular target: HIV-1 envelope glycoprotein (gp120) of virus 92HT593 (HIV-1)
# [13] = molecular target: HIV-1 envelope glycoprotein (gp120) of virus VS049 (HIV-1)
# [14] = molecular target: HIV-1 envelope glycoprotein (gp120) of virus VS046 (HIV-1)
# [15] = molecular target: HIV-1 envelope glycoprotein (gp120) of virus 7576 (HIV-1)
# [16] = molecular target: HIV-1 envelope glycoprotein (gp120) of virus 7595 (HIV-1)
# [17] = molecular target: HIV-1 envelope glycoprotein (gp120) of virus 302076 (HIV-1)
# [18] = molecular target: HIV-1 envelope glycoprotein (gp120) of virus VS030 (HIV-1)
# [19] = molecular target: HIV-1 envelope glycoprotein (gp120) of virus CHO77 (HIV-1)
# [20] = molecular target: HIV-1 envelope glycoprotein (gp120) of virus 8176 (HIV-1)
# [21] = molecular target: HIV-1 envelope glycoprotein (gp120) of virus 1012 (HIV-1)
# [22] = molecular target: HIV-1 envelope glycoprotein (gp120) of virus VS026 (HIV-1)
# [23] = molecular target: HIV-1 envelope glycoprotein (gp120) of virus 8134 (HIV-1)
# [24] = molecular target: HIV-1 envelope glycoprotein (gp120) of virus 8318 (HIV-1)
# [25] = molecular target: HIV-1 envelope glycoprotein (gp120) of virus 7051 (HIV-1)
# [26] = molecular target: HIV-1 envelope glycoprotein (gp120) of virus 8320 (HIV-1)
# [27] = molecular target: HIV-1 envelope glycoprotein (gp120) of virus 7552 (HIV-1)
# [28] = molecular target: HIV-1 envelope glycoprotein (gp120) of virus 1489 (HIV-1)
# [29] = molecular target: HIV-1 envelope glycoprotein (gp120) of virus 92US727 (HIV-1)
# [30] = molecular target: HIV-1 envelope glycoprotein (gp120) of virus VS004 (HIV-1)
# [31] = molecular target: HIV-1 envelope glycoprotein (gp120) of virus VS001 (HIV-1)
# [32] = molecular target: HIV-1 envelope glycoprotein (gp120) of virus VS017 (HIV-1)
# [33] = molecular target: HIV-1 envelope glycoprotein (gp120) of virus 1413 (HIV-1)
# [34] = molecular target: HIV-1 envelope glycoprotein (gp120) of virus 8117 (HIV-1)
# [35] = molecular target: HIV-1 envelope glycoprotein (gp120) of virus VS042 (HIV-1)
# [36] = molecular target: HIV-1 envelope glycoprotein (gp120) of virus 7015 (HIV-1)
# [37] = molecular target: HIV-1 envelope glycoprotein (gp120) of virus THRO (HIV-1)
# [38] = molecular target: HIV-1 envelope glycoprotein (gp120) of virus REJO (HIV-1)
# [39] = molecular target: HIV-1 envelope glycoprotein (gp120) of virus 92US657 (HIV-1)
# [40] = molecular target: HIV-1 envelope glycoprotein (gp120) of virus 8110 (HIV-1)
# [41] = molecular target: HIV-1 envelope glycoprotein (gp120) of virus 1003 (HIV-1)
# [42] = molecular target: HIV-1 envelope glycoprotein (gp120) of virus 7103 (HIV-1)
# [43] = molecular target: HIV-1 envelope glycoprotein (gp120) of virus VS039 (HIV-1)
# [44] = molecular target: HIV-1 envelope glycoprotein (gp120) of virus 8106 (HIV-1)
# [45] = molecular target: HIV-1 envelope glycoprotein (gp120) of virus VS044 (HIV-1)
# [46] = molecular target: HIV-1 envelope glycoprotein (gp120) of virus 92US712 (HIV-1)
binder,measurement,setting,value
"Antibody 1.36.35-1 (antibody, human IgG1, kappa, V domains shown) VH: QVQLVQSGAEVKKPGASVRVSCKASGYNIRDYFMHWWRQAPGQGLQWVGWINPKTGQPNNPRQFQGRVTMTRHASWDFDTFSAYMDLSRLRSDDTATYFCARQRTDYWDFDVWGQGTMVTVSS VL: DIQMTQSPSSLSASVGDRVTITCQANGYLNWYQQKPGKAPKLLIYDGSNLETGVPSRFSGSRWGQEYTLTISSLQPEDIATYFCQVYEFVGPGTNLDIKR",Virus Neutralization Potency (IC50),[1],0.32 µg/mL
same,Virus Neutralization Potency (IC50),[2],> 20 µg/mL
same,Virus Neutralization Potency (IC50),[3],5.37 µg/mL
"2.3.18-1 (antibody, human IgG1, kappa, V domains shown) VH: QVHLSQSGAAVTKPGASVRVSCEASGYNIRDYFIHWWRQAPGQGLQWVGWINPKTGQPNNPRQFQGRVSLTRHASWDFDTFSFYMDLKAVRSDDTAIYFCARQRSDYWDFDVWGSGTQVTVSS VL: DIQMTQSPSSLSARVGDRATITCQANGYLNWYQQRRGKAPKLLIYDGSKLERGVPARFSGSRWGQEYHLTISSLQPEDVATYFCQVYEFFGPGTRLDLKR",neutralization IC50,[4],> 23 µg/mL
same,neutralization IC50,[5],> 23 µg/mL
same,neutralization IC50,[6],2.37 µg/mL
"Antibody 1.52.90-1 (antibody, V domains shown) VH: QVQLLQSGAAVTKPGASVRVSCEASGYNIRDYFIHWWRQAPGQGLQWVGWINPKTGQPNNPRQFQGRVSLTRHASFDFDTFSFYMDLKALRSDDTAVYFCARQRSDYWDFDVWGSGTQVTVSS VL: DIQMTQSPSSLSASVGDRATITCQANGYLNWYQQRRGKAPKLLIYDGSKLERGVPSRFSGSRWGQEYNLTISSLQPEDIATYFCQVYEFFGPGTRLDLKR",Breadth (% viruses neutralized with an IC95 ≤ 50 µg/mL),[7],78%
same,Geomean IC95,[7],4.56 µg/mL
same,Median IC95,[7],4.42 µg/mL
"Antibody 1.1.119-1 (antibody, human IgG1, kappa, V domains shown) VH: QVQLLQSGAAVTKPGASVRVSCEASGYNIRDYFIHWWRQAPGQGLQWVGWINPKTGQPNNPRQFQGRVSLTRHASWDFDTFSFYMDLKALRSDDTAVYFCARQRSDYWDFDVWGSGTQVTVSS VL: DIQMTQSPSSLSASVGDRATITCQANGYLNWYQQRRGKAPKLLIYDGSKLERGVPSRFSGSRWGQEYTLTISSLQPEDIATYFCQVYEFFGPGTRLDLKR",Virus Neutralization Potency,[8],4.98 µg/mL
same,Virus Neutralization Potency,[9],1.93 µg/mL
same,Virus Neutralization Potency,[10],0.81 µg/mL
same,Virus Neutralization Potency,[11],0.19 µg/mL
same,Virus Neutralization Potency,[12],0.15 µg/mL
same,Virus Neutralization Potency,[13],> 100 µg/mL
same,Virus Neutralization Potency,[14],0.03 µg/mL
same,Virus Neutralization Potency,[15],0.6 µg/mL
same,Virus Neutralization Potency,[16],3.07 µg/mL
same,Virus Neutralization Potency,[17],0.08 µg/mL
same,Virus Neutralization Potency,[18],4.96 µg/mL
same,Virus Neutralization Potency,[19],0.02 µg/mL
same,Virus Neutralization Potency,[20],0.27 µg/mL
same,Virus Neutralization Potency,[21],1.06 µg/mL
same,Virus Neutralization Potency,[22],0.14 µg/mL
same,Virus Neutralization Potency,[23],3.44 µg/mL
same,Virus Neutralization Potency,[24],0.42 µg/mL
same,Virus Neutralization Potency,[25],1.89 µg/mL
same,Virus Neutralization Potency,[26],1.47 µg/mL
same,Virus Neutralization Potency,[27],> 80 µg/mL
same,Virus Neutralization Potency,[28],0.17 µg/mL
same,Virus Neutralization Potency,[29],43.7 µg/mL
same,Virus Neutralization Potency,[30],6.02 µg/mL
same,Virus Neutralization Potency,[31],0.37 µg/mL
same,Virus Neutralization Potency,[32],2.75 µg/mL
same,Virus Neutralization Potency,[33],4.52 µg/mL
same,Virus Neutralization Potency,[34],1.66 µg/mL
same,Virus Neutralization Potency,[35],2.19 µg/mL
same,Virus Neutralization Potency,[36],1.08 µg/mL
same,Virus Neutralization Potency,[37],2.8 µg/mL
same,Virus Neutralization Potency,[38],0.03 µg/mL
same,Virus Neutralization Potency,[39],0.3 µg/mL
same,Virus Neutralization Potency,[40],2.37 µg/mL
same,Virus Neutralization Potency,[41],0.91 µg/mL
same,Virus Neutralization Potency,[42],1.16 µg/mL
same,Virus Neutralization Potency,[43],0.13 µg/mL
same,Virus Neutralization Potency,[44],1.44 µg/mL
same,Virus Neutralization Potency,[45],0.2 µg/mL
same,Virus Neutralization Potency,[46],0.03 µg/mL
"Antibody 1.1.104-1 (antibody, human IgG1, kappa, V domains shown) VH: QVQLLQSGAAVTKPGASVRVSCEASGYNIRDYFIHWWRQAPGQGLQWVGWINPKTGQPNNPRQFQGRVSLTRHASWDFDTFSFYMDLKALRSDDTAVYFCARQRSDYWDFDVWGSGTQVTVSS VL: DIQMTQSPSSLSASVGDTATITCQANGYLNWYQQRRGKAPKLLIYDGSKLERGVPSRFSGRRWGQEYTLTINNLQPEDIATYFCQVYEFFGPGTRLDLKR",Virus Neutralization Potency,[8],6.57 µg/mL
same,Virus Neutralization Potency,[10],1.49 µg/mL
same,Virus Neutralization Potency,[11],0.06 µg/mL
same,Virus Neutralization Potency,[12],0.28 µg/mL
same,Virus Neutralization Potency,[13],> 100 µg/mL
same,Virus Neutralization Potency,[14],0.03 µg/mL
same,Virus Neutralization Potency,[15],1.1 µg/mL
same,Virus Neutralization Potency,[16],8.47 µg/mL
same,Virus Neutralization Potency,[17],0.1 µg/mL
same,Virus Neutralization Potency,[18],7.9 µg/mL
same,Virus Neutralization Potency,[19],0.03 µg/mL
same,Virus Neutralization Potency,[20],0.16 µg/mL
same,Virus Neutralization Potency,[21],2.87 µg/mL
same,Virus Neutralization Potency,[22],0.19 µg/mL
same,Virus Neutralization Potency,[23],6.07 µg/mL
same,Virus Neutralization Potency,[24],0.32 µg/mL
same,Virus Neutralization Potency,[25],1.32 µg/mL
same,Virus Neutralization Potency,[26],4.34 µg/mL
same,Virus Neutralization Potency,[27],> 80 µg/mL
same,Virus Neutralization Potency,[28],0.28 µg/mL
same,Virus Neutralization Potency,[29],10.6 µg/mL
same,Virus Neutralization Potency,[30],4.8 µg/mL
same,Virus Neutralization Potency,[31],0.34 µg/mL
same,Virus Neutralization Potency,[32],2.33 µg/mL
same,Virus Neutralization Potency,[33],4.34 µg/mL
same,Virus Neutralization Potency,[34],1.22 µg/mL
same,Virus Neutralization Potency,[35],2.33 µg/mL
same,Virus Neutralization Potency,[36],0.67 µg/mL
same,Virus Neutralization Potency,[37],4.27 µg/mL
same,Virus Neutralization Potency,[38],0.02 µg/mL
same,Virus Neutralization Potency,[39],0.36 µg/mL
same,Virus Neutralization Potency,[40],4.19 µg/mL
same,Virus Neutralization Potency,[41],1.44 µg/mL
same,Virus Neutralization Potency,[42],1.82 µg/mL
same,Virus Neutralization Potency,[43],0.1 µg/mL
same,Virus Neutralization Potency,[44],2.8 µg/mL
same,Virus Neutralization Potency,[45],0.28 µg/mL
same,Virus Neutralization Potency,[46],0.04 µg/mL
